According to US6177078A (Medvet Science Pty Limited, priority 1995, dated 2001):

How the values were obtained:
IL-3R α and β chains = target: T1, IL-3R α and β chains (Homo sapiens, UniProt P26951); assay: Competition for 125I-7G3 binding to COS cells expressing IL-3R α and β chains by IL-3 or GM-CSF; conditions: COS cells transfected with IL-3Rα and β chain, preincubated, 1 nM 125I-7G3
T1 construct: expressed in transfected cells; host or cells: COS (monkey fibroblast) cells, transient co-transfection
T1 sequence (P26951 19-378): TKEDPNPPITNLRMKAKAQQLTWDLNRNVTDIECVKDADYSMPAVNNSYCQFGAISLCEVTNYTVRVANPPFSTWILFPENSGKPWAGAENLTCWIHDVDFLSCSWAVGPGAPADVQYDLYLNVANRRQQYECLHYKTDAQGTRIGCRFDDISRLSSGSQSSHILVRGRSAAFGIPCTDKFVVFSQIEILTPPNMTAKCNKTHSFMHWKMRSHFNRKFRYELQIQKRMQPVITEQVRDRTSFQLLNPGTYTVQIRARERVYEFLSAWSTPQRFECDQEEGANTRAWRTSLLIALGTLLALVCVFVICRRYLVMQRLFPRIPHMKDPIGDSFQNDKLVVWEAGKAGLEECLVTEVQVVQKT
Protocol: (§1) The binding curve was analysed by Scatchard transformation.^31 In competition binding experiments F6 cells or COS cells co-expressing IL-3R α and β chains were preincubated for 2 hours at 4° C. with a range of concentrations of IL-3 or GM-CSF before adding 1 nM of ^125 I-7G3 for a further 2 hours.

IL-3Rα chain = target: T2, IL-3Rα chain (Homo sapiens, UniProt P26951); assay: Competition for 125I-7G3 binding to F6 cells by IL-3 or GM-CSF; conditions: F6 cells expressing IL-3Rα chain alone, preincubated, 1 nM 125I-7G3
T2 construct: expressed in transfected cells
T2 sequence (P26951 19-378): T1 sequence (P26951 19-378)
Protocol: as §1

GM-CSF: GM-CSF, a gift from Genetics Institute
inhibition of 125I-7G3 binding to the IL-3R (IL-3R α and β chains): not | inhibition of 125I-7G3 binding to the IL-3R (IL-3Rα chain): not
